Reference: US20220242958A1, “BISPECIFIC NANOBODIES” (Ablynx N.V., priority 2013, published 2022)

Experiments:
[1] = target: T1, recombinant IL-3Rα ectodomain (Homo sapiens, UniProt P26951); test: SPR (ProteOn) on recombinant IL-3Rα ectodomain; assay type: binding
T1 construct: Immobilisation of recombinant IL-3Rα ectodomain (Sino Biologicals) was done until 761 RU; purchased Sino Biologicals
T1 sequence (P26951 19-305 limits assumed): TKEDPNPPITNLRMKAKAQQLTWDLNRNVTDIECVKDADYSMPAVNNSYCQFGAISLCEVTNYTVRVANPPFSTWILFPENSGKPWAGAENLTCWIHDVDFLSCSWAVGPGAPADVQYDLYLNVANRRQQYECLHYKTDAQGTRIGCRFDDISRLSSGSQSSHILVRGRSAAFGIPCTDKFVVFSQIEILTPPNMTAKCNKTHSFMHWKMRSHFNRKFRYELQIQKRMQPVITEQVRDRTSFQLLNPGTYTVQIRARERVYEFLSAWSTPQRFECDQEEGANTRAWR
Description: The affinities of CD123 specific Nanobodies were further investigated via Surface Plasmon Resonance (SPR) at ProteOn. Immobilisation of recombinant IL-3Rα ectodomain (Sino Biologicals) was done until 761 RU. The Nanobodies were applied at a highest concentration of 1 μM, followed by a three-fold titration, covering 5 further concentrations ranging from 1 μM to 4.1 nM. These were then applied in a single injection cycle, utilising the ProteOn's specific one-shot kinetics approach for kinetic analysis. Evaluation of the association/dissociation data was performed by fitting a 1:1 interaction model (Langmuir binding model). […] For CD123 Nanobodies the obtained KD values correlated well with the apparent affinities retrieved by cell binding EC50 values (see Table 3).

[2] = target: T2, human IL-23R extracellular domain Fc-fusion (Homo sapiens, UniProt Q5VWK5); test: SPR (Biacore T100) on IL-23R-Fc; assay type: binding
T2 construct: Fc-fusions of human IL12Rβ1, IL12Rβ2 and IL-23R extracellular domains; purchased R&D Systems #1400-IR
T2 sequence (Q5VWK5 24-355 limits assumed): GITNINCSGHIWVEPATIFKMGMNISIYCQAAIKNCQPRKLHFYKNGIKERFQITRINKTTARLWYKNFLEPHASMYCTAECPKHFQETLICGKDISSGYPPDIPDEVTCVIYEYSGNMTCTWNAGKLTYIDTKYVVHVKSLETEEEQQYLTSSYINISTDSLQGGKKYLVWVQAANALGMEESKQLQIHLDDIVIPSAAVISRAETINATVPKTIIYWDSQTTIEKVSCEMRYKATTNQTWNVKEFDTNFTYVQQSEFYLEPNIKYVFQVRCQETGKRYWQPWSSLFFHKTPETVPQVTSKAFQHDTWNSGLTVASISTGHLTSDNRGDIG
Description: (§1) The precise binding affinities of the purified Nanobodies were determined in a multi-cycle kinetic analysis using Surface Plasmon Resonance analysis (Biacore T100) on Fc-fusions of human IL12Rβ1, IL12Rβ2 and IL-23R extracellular domains (R&D Systems, #839-B1, #1959-B2, #1400-IR). Sensorchips CM5 were immobilized with anti-hIgG antibody (GE Healthcare, BR-1008-39), after which receptors were captured at 5 μg/ml protein and contact time of 120 seconds. Running buffer used was HBS-EP+ (GE Healthcare, BR-1006-69) at 25° C., with a flow-rate of […]. For immobilization by amine coupling, EDC/NHS was used for activation and ethanolamine HCl for deactivation (Biacore, amine coupling kit). Nanobodies were evaluated at a concentration range between 1.37 nM and 3 μM. Nanobodies were allowed to associate for 2 min and to dissociate for 15 min at a flow rate of […]. In between injections, the surfaces were regenerated with a 3 min pulse of 3M MgCl2 and 2 min stabilization period. Evaluation of the association/dissociation data was performed by fitting a 1:1 interaction model (Langmuir binding model) by Biacore TWO software v2.0.3.

hCEACAM5 = target: T3, hCEACAM5 (Homo sapiens, UniProt P06731); test: SPR (Biacore T100) on hCEACAM-5; assay type: binding
T3 construct: purchased R&D Systems 4128-CM
T3 sequence (P06731 35-676): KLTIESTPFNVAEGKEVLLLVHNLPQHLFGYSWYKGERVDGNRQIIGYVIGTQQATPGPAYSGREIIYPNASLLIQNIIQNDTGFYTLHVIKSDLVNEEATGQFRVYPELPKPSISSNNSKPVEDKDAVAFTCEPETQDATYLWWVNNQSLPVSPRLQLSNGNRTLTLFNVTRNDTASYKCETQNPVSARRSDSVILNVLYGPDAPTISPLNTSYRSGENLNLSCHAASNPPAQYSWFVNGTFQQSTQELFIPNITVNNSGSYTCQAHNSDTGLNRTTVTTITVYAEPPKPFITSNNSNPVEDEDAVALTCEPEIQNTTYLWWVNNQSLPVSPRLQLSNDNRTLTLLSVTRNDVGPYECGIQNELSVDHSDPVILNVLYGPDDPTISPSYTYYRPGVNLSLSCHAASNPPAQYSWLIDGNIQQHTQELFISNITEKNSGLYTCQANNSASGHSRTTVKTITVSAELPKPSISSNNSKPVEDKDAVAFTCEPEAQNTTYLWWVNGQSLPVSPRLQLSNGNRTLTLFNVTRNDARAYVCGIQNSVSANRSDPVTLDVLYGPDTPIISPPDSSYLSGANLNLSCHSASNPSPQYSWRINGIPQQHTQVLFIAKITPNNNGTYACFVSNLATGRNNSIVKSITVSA
Description: In between injections, the surfaces were regenerated with a 5 sec pulse of 10 mM Glycine-HCl pH1.5 and 1 min stabilization period. Evaluation of the association/dissociation data was performed by fitting a 1:1 interaction model (Langmuir binding model) by Biacore T100 software v2.0.3. The affinity constant KD was calculated from resulting association and dissociation rate constants ka and kd and are shown in Table 4.2. The observed affinity of the NbCEA5 Nanobody (designated as CEA#1) and humanised variant (CEA#2) was in line with the reported value.

[3] = target: T4, human IL12Rβ2 extracellular domain Fc-fusion (Homo sapiens, UniProt Q99665); test: SPR (Biacore T100) on IL12Rβ2-Fc; assay type: binding
T4 construct: Fc-fusions of human IL12Rβ1, IL12Rβ2 and IL-23R extracellular domains; purchased R&D Systems #1959-B2
T4 sequence (Q99665 24-622 limits assumed): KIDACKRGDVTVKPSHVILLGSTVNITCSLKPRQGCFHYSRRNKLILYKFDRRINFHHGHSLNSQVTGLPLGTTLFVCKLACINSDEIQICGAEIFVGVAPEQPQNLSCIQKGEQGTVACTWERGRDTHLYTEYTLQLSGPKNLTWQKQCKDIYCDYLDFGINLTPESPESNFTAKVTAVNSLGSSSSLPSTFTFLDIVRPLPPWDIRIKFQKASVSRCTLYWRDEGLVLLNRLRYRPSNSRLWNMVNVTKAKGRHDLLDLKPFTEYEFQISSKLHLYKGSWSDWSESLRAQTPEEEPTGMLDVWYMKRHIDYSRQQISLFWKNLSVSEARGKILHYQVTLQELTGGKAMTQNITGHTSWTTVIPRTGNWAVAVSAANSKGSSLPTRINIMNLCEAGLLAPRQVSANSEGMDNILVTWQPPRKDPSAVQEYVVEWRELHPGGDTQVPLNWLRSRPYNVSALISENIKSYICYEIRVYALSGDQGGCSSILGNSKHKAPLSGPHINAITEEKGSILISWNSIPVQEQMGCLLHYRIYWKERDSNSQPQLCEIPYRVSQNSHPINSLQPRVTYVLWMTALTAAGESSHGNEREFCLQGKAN
Description: as §1

[4] = test system: CD8+/CD4− gated and CD4+ gated T cells; test: Multi-colour FACS on TH1 activated T cells gated for CD8 or CD4; assay type: binding, human; details: donor D838; anti-flag-APC detection
Description: To elucidate if CD4-IL12R bispecific polypeptides preferentially bind to the CD4+/IL12R+ TH1 cell subset within the pool of T cells, Nanobody binding was analysed to a pool of activated T cells gated for either CD8 (detected by Anti-hu CD8 PE-Cy7 conjugated monoclonal antibody (BD 557746) or CD4 (detected by Anti-hu CD4 alexa Fluor 488-conjugated polyclonal antibody (R&D FAB8165G) in a multi-colour FACS experiment. Nanobody binding to the CD8+/CD4− gated cells and to CD4+ gated cells was determined using anti-flag-APC (Prozyme PJ255) detection. In this experiment TH1 activated T cells from the same donor (D838) as shown in FIG. 3.6 were used.

B1: 55F03: CD123 building block, SEQ ID NO: 13 (protein)
VHH: EVQLVESGGGLVQAGGPLRLSCAASGRTFSSYVMGWFRQAPGKEREFVAAIYWSNGKTQYTDSVKGRFTISGDNAKNTVYLQMNSLNPEDTAVYYCVADKDETGFRTLPIAYDYWGLGTQVTVSS
- SPR - IL-3Ra ka [1]: 42500 M⁻¹ s⁻¹
- SPR - IL-3Ra kd [1]: 0.00487 s⁻¹

B2: 51D09: CD123 building block, SEQ ID NO: 10 (protein)
VHH: EVQLVESGGGLVQPGGSLRLSCAASGSIFSGNTMGWYRQAPGKQRELVAAISSGGSTDYADSVKGRFTISRDNSKNTVYLQMNSLRPEDTAVYYCNAAILLYRLYGYEEGDYWGLGTLVTVSS
- SPR - IL-3Ra ka [1]: 37800 M⁻¹ s⁻¹
- SPR - IL-3Ra kd [1]: 0.000516 s⁻¹

B3: 55B04: CD123 building block, SEQ ID NO: 9 (protein)
VHH: EVQLVESGGGLVQPGGSLRLSCAASGINFRFNSMGWWRRRAPGKEREWVAAITSGDITNYRDSVRGRFTISRDNVKNTVYLQMNTLKLEDTAVYYCNTFPPIADYWGLGTQVTVSS
- SPR - IL-3Ra ka [1]: 504000 M⁻¹ s⁻¹
- SPR - IL-3Ra kd [1]: 0.00794 s⁻¹

B4: IL23R#19: IL-23R specific ligand competing Nanobody (protein)
VHH: EVQLVESGGGLVQPGGSLTLSCVASGRTFSTDVMGWFRQAPGKEREFVAAHRTSGISTVYAASVKGRFTISRDNAKNTVYLGMKSLKPEDTAVYVCAAGSDASGGYDYWGQGTLVTVSS
- Binding kinetics (SPR) ka (1/Ms), IL-23R [2]: 730000 M⁻¹ s⁻¹
- Binding kinetics (SPR) kd (1/s), IL-23R [2]: 0.0081 s⁻¹

B5: 50F07: CD123 building block, SEQ ID NO: 12 (protein)
VHH: EVQLVESGGGLVQPGGSLRLSCTGSGSTFSINAMGWYRQAPGKQRELVAAITSGGRTNYADSVKGRFTISRDNSKNTVYLQMNSLRPEDTAVYYCNARISAGTAFWLWSDYEYWGLGTLVTVSS
- SPR - IL-3Ra ka [1]: 102000 M⁻¹ s⁻¹
- SPR - IL-3Ra kd [1]: 0.00758 s⁻¹

B6: CEA#5: NbCEA5(K43Q, G47A, T73N, V78L) (protein)
VHH: EVQLVESGGGSVQAGGSLRLSCAASGDTYGSYWMGWFRQAPGQEREAVAAINRGGGYTVYADSVKGRFTISRDNAKNTLYLQMNSLRPDDTADYYCAASGVLGGLHEDWFNYWGQGTLVTVSS
- hCEACAM5 ka (hCEACAM5): 1.1e+06 M⁻¹ s⁻¹
- hCEACAM5 kd (hCEACAM5): 0.0033 s⁻¹

B7: CEA#2: humanised NbCEA5 variant (S11L, A14P, K43Q, E44G, R45L, G47A, T73N, A74S, V78L, P84A, D85E, D89V) (protein)
VHH: EVQLVESGGGLVQPGGSLRLSCAASGDTYGSYWMGWFRQAPGQGLEAVAAINRGGGYTVYADSVKGRFTISRDNSKNTLYLQMNSLRAEDTAVYYCAASGVLGGLHEDWFNYWGQGTLVTVSS
- hCEACAM5 ka (hCEACAM5): 1.3e+06 M⁻¹ s⁻¹
- hCEACAM5 kd (hCEACAM5): 0.0025 s⁻¹

B8: IL12Rb2#1: IL-12Rβ2 specific ligand competing Nanobody (protein)
VHH: EVQLVESGGRLVQAGDSLRLSCAASGRTFISYRMGWFRQAPGKEREFVAALRWSSSNIDYTYYADSVKGRFSISGDYAKNTVYLQMNSLKAEDTAVYYCAASTRWGVMESDTEYTSWGQGTLVTVSS
- Binding kinetics (SPR) ka (1/Ms), IL12Rβ2 [3]: 210000 M⁻¹ s⁻¹
- Binding kinetics (SPR) kd (1/s), IL12Rβ2 [3]: 0.00057 s⁻¹
- binding to CD4+ gated and CD8+ gated T cells [4]: low fluorescence signals to both CD4+ and CD8+ cells

B9: IL12Rb2#2: IL-12Rβ2 specific ligand competing Nanobody (protein)
VHH: EVQLVESGGRLVQAGDSLRLSCAASGRTFTSYRMGWFRQAPGKEREFVSALRWSSGNIDYTYYADSVKGRFSISGDYAKNTVYLQMNSLKAEDTAVYYCAASTRWGVMESDTEYTSWGQGTLVTVSS
- Binding kinetics (SPR) ka (1/Ms), IL12Rβ2 [3]: 270000 M⁻¹ s⁻¹
- Binding kinetics (SPR) kd (1/s), IL12Rβ2 [3]: 0.0018 s⁻¹

B10: 55C05: CD123 building block, SEQ ID NO: 11 (protein)
VHH: EVQLVESGGGLVPAGDSLRLSCVASGRSLNTYTMGWFRQAPGKECEFVAAINWNGVYRDYADSAKGRFTASRDNAMNTVFLQMNSLKPEDTAVYFCATATQGWDRHTEPSDFGSWGLGTQVTVSS
- SPR - IL-3Ra ka [1]: 126000 M⁻¹ s⁻¹
- SPR - IL-3Ra kd [1]: 0.00741 s⁻¹
